Substitutions are numbered along the chain they refer to.
B1: h#24A3-H2/L3 (antibody, human IgG2, kappa, V domains shown)
VH: QVQLVQSGAEVKKPGASVKVSCKASGYTFPRYDVSWVRQAPGQGLEWMGVIHPGSGGTGYNEKFKARVTITADTSTSTAYMELSSLRSEDTAVYYCARRGLNSGYWFFDFWGQGTLVTVSS
VL: DIVMTQSPDSLAVSLGERATINCKASQNVGSNVDWYQQKPGQSPKLLIYESTNRYTGVPDRFTGSGSGTDFTFTISSLQAEDVAVYYCMQSNFFPFTFGQGTKVEIKR
B2: h#24A3-H2b/L3b (antibody, human IgG2, kappa, V domains shown)
VH: B1 VH with S103K
VL: B1 VL with F73L
B3: h#24A3-H2e/L2b (antibody, human IgG2, kappa, V domains shown)
VH: B1 VH with A72V, S103K
VL: B1 VL with T63S, F73L
B4: h#24A3-H2b/L1 (antibody, human IgG2, kappa, V domains shown)
VH: B1 VH with S103K
VL: B1 VL with S43P, T63S, F73L
B5: h#24A3-H2/L1 (antibody, human IgG2, kappa, V domains shown)
VH: B1 VH
VL: B1 VL with S43P, T63S, F73L
B6: h#24A3-H2d/L3b (antibody, human IgG2, kappa, V domains shown)
VH: B1 VH with V68A, S103K
VL: B1 VL with F73L
B7: h#24A3-H2e/L1 (antibody, human IgG2, kappa, V domains shown)
VH: B1 VH with A72V, S103K
VL: B1 VL with S43P, T63S, F73L
B8: h#24A3-H2b/L2b (antibody, human IgG2, kappa, V domains shown)
VH: B1 VH with S103K
VL: B1 VL with T63S, F73L
B9: h#24A3-H2c/L3b (antibody, human IgG2, kappa, V domains shown)
VH: B1 VH with M48I, S103K
VL: B1 VL with F73L
B10: h#24A3-H2c/L1 (antibody, human IgG2, kappa, V domains shown)
VH: B1 VH with M48I, S103K
VL: B1 VL with S43P, T63S, F73L
B11: h#24A3-H2/L2 (antibody, human IgG2, kappa, V domains shown)
VH: B1 VH
VL: B1 VL with T63S
B12: h#24A3-H2d/L1 (antibody, human IgG2, kappa, V domains shown)
VH: B1 VH with V68A, S103K
VL: B1 VL with S43P, T63S, F73L
B13: h#24A3-H2d/L2b (antibody, human IgG2, kappa, V domains shown)
VH: B1 VH with V68A, S103K
VL: B1 VL with T63S, F73L
B14: h#24A3-H2e/L3b (antibody, human IgG2, kappa, V domains shown)
VH: B1 VH with A72V, S103K
VL: B1 VL with F73L
B15: h#24A3-H2c/L2b (antibody, human IgG2, kappa, V domains shown)
VH: B1 VH with M48I, S103K
VL: B1 VL with T63S, F73L
B16: rat anti-human Siglec-15 monoclonal antibody #24A3 (antibody, rat IgG2a, V domains shown)
VH: QVQLQQSGAELTKPGSSVKISCKTSGYTFPRYDVSWIKQRPGQALEWIGVIHPGSGGTGYNEKFKAKATLAVDTSSSTAFMQLSSLTPEDTAVYYCARRGLNSGYWFFDFWGPGTLVTVSS
VL: DIVMTQSPTSMSISVGDRVTMNCKASQNVGSNVDWYQQKTGQSPKLLIYESTNRYTGVPDRFTGSGSGTDFTFTISNVQAEDLAVYYCMQSNFFPFTFGSGIKLEIKR
B17: human chimeric antibody of the rat anti-human Siglec-15 monoclonal antibody #24A3 (antibody, human IgG2, V domains shown)
VH: B16 VH
VL: B16 VL

Legend:
[1] = target: human Siglec-15 V-set domain (human) (UniProt Q6ZMC9); assay: SPR (Biacore T200), antibody captured via anti-human IgG, antigen as analyte, same manner as 10-1
UniProt Q6ZMC9, sequence (Q6ZMC9 39-165 limits assumed, form in doubt): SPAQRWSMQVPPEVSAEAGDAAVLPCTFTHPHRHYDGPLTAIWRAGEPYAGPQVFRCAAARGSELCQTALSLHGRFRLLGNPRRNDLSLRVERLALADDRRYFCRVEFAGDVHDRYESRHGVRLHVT

[2] = target: human Siglec-15 V-set domain (human) (UniProt Q6ZMC9); assay: SPR (Biacore T200), antibody captured via immobilized anti-mouse IgG antibody, antigen as analyte, 1:1 model
[3] = target: human Siglec-15 V-set domain (human) (UniProt Q6ZMC9); assay: SPR (Biacore T200), ratio of KD values, reference rat #32A1
[4] = target: human Siglec-15 V-set domain (human) (UniProt Q6ZMC9); assay: SPR (Biacore T200), antibody captured via immobilized anti-human IgG antibody, antigen as analyte, 1:1 model

Binder	Kd [1] [nM]	also measured
B1	0.027	
B2	0.0077	
B3	0.018	
B4	0.0098	
B5	0.031	
B6	0.0075	
B7	0.0069	
B8	0.0085	
B9	0.015	
B10	0.01	
B11	0.028	
B12	0.0045	
B13	0.01	
B14	0.016	
B15	0.013	
B16		Kd [2]: 0.07 nM; fold affinity against #32A1 [3]: 2 fold
B17		Kd [4]: 0.017 nM

From patent US20150125470A1
